Reference: publication PMC5589570, “The antigenic identity of human class I MHC phosphopeptides is critically dependent upon phosphorylation status” (Oncotarget, 2017)
Square brackets hold non-standard residues; d marks the D form. Ends that are not written are not given here. pS = N[C@@H](COP(=O)(O)O)C(=O)O

Tests used:
[1] = target: HLA-A2 (heavy chain with β2-microglobulin) (human | ); assay: radioligand binding; competitive peptide binding assay: test peptide (100,000-fold concentration range, triplicate) displaces a radiolabeled peptide from HLA-A2 (refolded with […]); MHC-peptide complexes captured on plates coated with antibody W6/32; IC50 taken as a reasonable approximation of the dissociation constant; conditions: both partners purified
[2] = target: HLA-A2 (heavy chain with β2-microglobulin) (human | , Heavy-chain limits are not given; taken from the longest deposited entity of this paper (mature 1-276, A*02:01). Bound peptide not included: the test peptide is the partner, and the affinity-assay c); assay: as above; conditions: both partners purified

B1: RQIp, phosphopeptide RQIpSQDVKL derived from adenosine monophosphate deaminase 2 (AMPD2) (peptide)
peptide: RQI[pS]QDVKL
notes: stretch of adenosine monophosphate deaminase 2 (AMPD2); source: synthetic peptide
Kd [1]: 25.5 nM

B2: RQInp, unmodified peptide RQISQDVKL derived from adenosine monophosphate deaminase 2 (AMPD2) (peptide)
peptide: RQISQDVKL
notes: stretch of adenosine monophosphate deaminase 2 (AMPD2); also called non-phosphorylated RQI; source: synthetic peptide
Kd [2]: 1920 nM

B3: RQA_Vnp, unmodified peptide RQASIELPSMAV derived from Lymphocyte Specific Protein 1 (LSP-1) (peptide)
peptide: RQASIELPSMAV
notes: stretch of Lymphocyte Specific Protein 1 (LSP-1); source: synthetic peptide
Kd [2]: 26 nM
